From PMC2275104 (Nucleic Acids Research, 2008)

B1: Methanothermobacter thermautotrophicus MCM protein, wild-type (enzyme, UniProt O27798 1-666, looked up)
chain: MMKTVDKSKTLTKFEEFFSLQDYKDRVFEAIEKYPNVRSIEVDYLDLEMFDPDLADLLIEKPDDVIRAAQQAIRNIDRLRKNVDLNIRFSGISNVIPLRELRSKFIGKFVAVDGIVRKTDEIRPRIVKAVFECRGCMRHHAVTQSTNMITEPSLCSECGGRSFRLLQDESEFLDTQTLKLQEPLENLSGGEQPRQITVVLEDDLVDTLTPGDIVRVTGTLRTVRDERTKRFKNFIYGNYTEFLEQEFEELQISEEDEEKIKELAGDPNIYEKIIRSTAPSIHGYREVKEAIALQLFGGTGKELDDKTRLRGDIHILIVGDPGIGKSQMLKYVSKLAPRGIYTSGKGTSGVGLTAAAVRDEFGGWSLEAGALVLGDKGNVCVDELDKMREEDRSAIHEALEQQTISIAKAGIMATLNSRCSVLAAANPKFGRFDSYKSIAEQIDLPSTILSRFDLIFVVEDKPDEEKDRELARHILKTHKEDHMPFEIDPELLRKYIAYARKNVRPVLTDEAMQVLEDFYVSMRASAADEDSPVPITARQLEALVRLSEASAKIKLKEHVEAEDARKAIKLSQACLKQVGYDPETGKIDIDKVEGRTPKSERDKFRLLLELIKEYEDDYGGRAPTNILITEMMDRYNVSEEKVEELIRILKDKGAIFEPARGYLKIV
B2: Methanothermobacter thermautotrophicus MCM protein, E182R mutant (enzyme, UniProt O27798 1-666, looked up)
chain: MMKTVDKSKTLTKFEEFFSLQDYKDRVFEAIEKYPNVRSIEVDYLDLEMFDPDLADLLIEKPDDVIRAAQQAIRNIDRLRKNVDLNIRFSGISNVIPLRELRSKFIGKFVAVDGIVRKTDEIRPRIVKAVFECRGCMRHHAVTQSTNMITEPSLCSECGGRSFRLLQDESEFLDTQTLKLQRPLENLSGGEQPRQITVVLEDDLVDTLTPGDIVRVTGTLRTVRDERTKRFKNFIYGNYTEFLEQEFEELQISEEDEEKIKELAGDPNIYEKIIRSTAPSIHGYREVKEAIALQLFGGTGKELDDKTRLRGDIHILIVGDPGIGKSQMLKYVSKLAPRGIYTSGKGTSGVGLTAAAVRDEFGGWSLEAGALVLGDKGNVCVDELDKMREEDRSAIHEALEQQTISIAKAGIMATLNSRCSVLAAANPKFGRFDSYKSIAEQIDLPSTILSRFDLIFVVEDKPDEEKDRELARHILKTHKEDHMPFEIDPELLRKYIAYARKNVRPVLTDEAMQVLEDFYVSMRASAADEDSPVPITARQLEALVRLSEASAKIKLKEHVEAEDARKAIKLSQACLKQVGYDPETGKIDIDKVEGRTPKSERDKFRLLLELIKEYEDDYGGRAPTNILITEMMDRYNVSEEKVEELIRILKDKGAIFEPARGYLKIV
B3: Methanothermobacter thermautotrophicus MCM protein, G190A mutant (enzyme, UniProt O27798 1-666, looked up)
chain: MMKTVDKSKTLTKFEEFFSLQDYKDRVFEAIEKYPNVRSIEVDYLDLEMFDPDLADLLIEKPDDVIRAAQQAIRNIDRLRKNVDLNIRFSGISNVIPLRELRSKFIGKFVAVDGIVRKTDEIRPRIVKAVFECRGCMRHHAVTQSTNMITEPSLCSECGGRSFRLLQDESEFLDTQTLKLQEPLENLSGAEQPRQITVVLEDDLVDTLTPGDIVRVTGTLRTVRDERTKRFKNFIYGNYTEFLEQEFEELQISEEDEEKIKELAGDPNIYEKIIRSTAPSIHGYREVKEAIALQLFGGTGKELDDKTRLRGDIHILIVGDPGIGKSQMLKYVSKLAPRGIYTSGKGTSGVGLTAAAVRDEFGGWSLEAGALVLGDKGNVCVDELDKMREEDRSAIHEALEQQTISIAKAGIMATLNSRCSVLAAANPKFGRFDSYKSIAEQIDLPSTILSRFDLIFVVEDKPDEEKDRELARHILKTHKEDHMPFEIDPELLRKYIAYARKNVRPVLTDEAMQVLEDFYVSMRASAADEDSPVPITARQLEALVRLSEASAKIKLKEHVEAEDARKAIKLSQACLKQVGYDPETGKIDIDKVEGRTPKSERDKFRLLLELIKEYEDDYGGRAPTNILITEMMDRYNVSEEKVEELIRILKDKGAIFEPARGYLKIV
B4: Methanothermobacter thermautotrophicus MCM protein, E185R mutant (enzyme, UniProt O27798 1-666, looked up)
chain: MMKTVDKSKTLTKFEEFFSLQDYKDRVFEAIEKYPNVRSIEVDYLDLEMFDPDLADLLIEKPDDVIRAAQQAIRNIDRLRKNVDLNIRFSGISNVIPLRELRSKFIGKFVAVDGIVRKTDEIRPRIVKAVFECRGCMRHHAVTQSTNMITEPSLCSECGGRSFRLLQDESEFLDTQTLKLQEPLRNLSGGEQPRQITVVLEDDLVDTLTPGDIVRVTGTLRTVRDERTKRFKNFIYGNYTEFLEQEFEELQISEEDEEKIKELAGDPNIYEKIIRSTAPSIHGYREVKEAIALQLFGGTGKELDDKTRLRGDIHILIVGDPGIGKSQMLKYVSKLAPRGIYTSGKGTSGVGLTAAAVRDEFGGWSLEAGALVLGDKGNVCVDELDKMREEDRSAIHEALEQQTISIAKAGIMATLNSRCSVLAAANPKFGRFDSYKSIAEQIDLPSTILSRFDLIFVVEDKPDEEKDRELARHILKTHKEDHMPFEIDPELLRKYIAYARKNVRPVLTDEAMQVLEDFYVSMRASAADEDSPVPITARQLEALVRLSEASAKIKLKEHVEAEDARKAIKLSQACLKQVGYDPETGKIDIDKVEGRTPKSERDKFRLLLELIKEYEDDYGGRAPTNILITEMMDRYNVSEEKVEELIRILKDKGAIFEPARGYLKIV
B5: Methanothermobacter thermautotrophicus MCM protein, Q181A mutant (enzyme, UniProt O27798 1-666, looked up)
chain: MMKTVDKSKTLTKFEEFFSLQDYKDRVFEAIEKYPNVRSIEVDYLDLEMFDPDLADLLIEKPDDVIRAAQQAIRNIDRLRKNVDLNIRFSGISNVIPLRELRSKFIGKFVAVDGIVRKTDEIRPRIVKAVFECRGCMRHHAVTQSTNMITEPSLCSECGGRSFRLLQDESEFLDTQTLKLAEPLENLSGGEQPRQITVVLEDDLVDTLTPGDIVRVTGTLRTVRDERTKRFKNFIYGNYTEFLEQEFEELQISEEDEEKIKELAGDPNIYEKIIRSTAPSIHGYREVKEAIALQLFGGTGKELDDKTRLRGDIHILIVGDPGIGKSQMLKYVSKLAPRGIYTSGKGTSGVGLTAAAVRDEFGGWSLEAGALVLGDKGNVCVDELDKMREEDRSAIHEALEQQTISIAKAGIMATLNSRCSVLAAANPKFGRFDSYKSIAEQIDLPSTILSRFDLIFVVEDKPDEEKDRELARHILKTHKEDHMPFEIDPELLRKYIAYARKNVRPVLTDEAMQVLEDFYVSMRASAADEDSPVPITARQLEALVRLSEASAKIKLKEHVEAEDARKAIKLSQACLKQVGYDPETGKIDIDKVEGRTPKSERDKFRLLLELIKEYEDDYGGRAPTNILITEMMDRYNVSEEKVEELIRILKDKGAIFEPARGYLKIV
B6: Methanothermobacter thermautotrophicus MCM protein, P193G mutant (enzyme, UniProt O27798 1-666, looked up)
chain: MMKTVDKSKTLTKFEEFFSLQDYKDRVFEAIEKYPNVRSIEVDYLDLEMFDPDLADLLIEKPDDVIRAAQQAIRNIDRLRKNVDLNIRFSGISNVIPLRELRSKFIGKFVAVDGIVRKTDEIRPRIVKAVFECRGCMRHHAVTQSTNMITEPSLCSECGGRSFRLLQDESEFLDTQTLKLQEPLENLSGGEQGRQITVVLEDDLVDTLTPGDIVRVTGTLRTVRDERTKRFKNFIYGNYTEFLEQEFEELQISEEDEEKIKELAGDPNIYEKIIRSTAPSIHGYREVKEAIALQLFGGTGKELDDKTRLRGDIHILIVGDPGIGKSQMLKYVSKLAPRGIYTSGKGTSGVGLTAAAVRDEFGGWSLEAGALVLGDKGNVCVDELDKMREEDRSAIHEALEQQTISIAKAGIMATLNSRCSVLAAANPKFGRFDSYKSIAEQIDLPSTILSRFDLIFVVEDKPDEEKDRELARHILKTHKEDHMPFEIDPELLRKYIAYARKNVRPVLTDEAMQVLEDFYVSMRASAADEDSPVPITARQLEALVRLSEASAKIKLKEHVEAEDARKAIKLSQACLKQVGYDPETGKIDIDKVEGRTPKSERDKFRLLLELIKEYEDDYGGRAPTNILITEMMDRYNVSEEKVEELIRILKDKGAIFEPARGYLKIV
B7: Methanothermobacter thermautotrophicus MCM protein, L184A mutant (enzyme, UniProt O27798 1-666, looked up)
chain: MMKTVDKSKTLTKFEEFFSLQDYKDRVFEAIEKYPNVRSIEVDYLDLEMFDPDLADLLIEKPDDVIRAAQQAIRNIDRLRKNVDLNIRFSGISNVIPLRELRSKFIGKFVAVDGIVRKTDEIRPRIVKAVFECRGCMRHHAVTQSTNMITEPSLCSECGGRSFRLLQDESEFLDTQTLKLQEPAENLSGGEQPRQITVVLEDDLVDTLTPGDIVRVTGTLRTVRDERTKRFKNFIYGNYTEFLEQEFEELQISEEDEEKIKELAGDPNIYEKIIRSTAPSIHGYREVKEAIALQLFGGTGKELDDKTRLRGDIHILIVGDPGIGKSQMLKYVSKLAPRGIYTSGKGTSGVGLTAAAVRDEFGGWSLEAGALVLGDKGNVCVDELDKMREEDRSAIHEALEQQTISIAKAGIMATLNSRCSVLAAANPKFGRFDSYKSIAEQIDLPSTILSRFDLIFVVEDKPDEEKDRELARHILKTHKEDHMPFEIDPELLRKYIAYARKNVRPVLTDEAMQVLEDFYVSMRASAADEDSPVPITARQLEALVRLSEASAKIKLKEHVEAEDARKAIKLSQACLKQVGYDPETGKIDIDKVEGRTPKSERDKFRLLLELIKEYEDDYGGRAPTNILITEMMDRYNVSEEKVEELIRILKDKGAIFEPARGYLKIV

Target: the molecule itself
Assay: SEC

Stoichiometry N, 12:
B1, B2, B3, B4, B5, B6, B7
